T1: murine (mu) Robo 4 ECD-PreS-Avi-His (mouse)
T1 construct: also called recombinant murine Robo 4; murine Robo 4
T1 chain: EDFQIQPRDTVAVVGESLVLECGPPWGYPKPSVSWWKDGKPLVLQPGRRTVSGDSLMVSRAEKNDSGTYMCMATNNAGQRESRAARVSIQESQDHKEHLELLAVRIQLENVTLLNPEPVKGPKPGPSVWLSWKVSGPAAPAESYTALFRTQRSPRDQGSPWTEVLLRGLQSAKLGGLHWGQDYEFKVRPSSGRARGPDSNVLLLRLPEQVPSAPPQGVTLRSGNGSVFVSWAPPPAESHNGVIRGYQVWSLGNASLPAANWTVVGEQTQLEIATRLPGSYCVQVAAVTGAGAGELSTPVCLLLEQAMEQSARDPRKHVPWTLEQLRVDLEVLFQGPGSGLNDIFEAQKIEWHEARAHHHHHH

T2: recombinant cynomolgus Robo 4 ECD fused to AcTEV protease recognition site, Avi- and 6xHis-tag (cynomolgus)
T2 construct: Biotinylated in the avidity assay
T2 chain: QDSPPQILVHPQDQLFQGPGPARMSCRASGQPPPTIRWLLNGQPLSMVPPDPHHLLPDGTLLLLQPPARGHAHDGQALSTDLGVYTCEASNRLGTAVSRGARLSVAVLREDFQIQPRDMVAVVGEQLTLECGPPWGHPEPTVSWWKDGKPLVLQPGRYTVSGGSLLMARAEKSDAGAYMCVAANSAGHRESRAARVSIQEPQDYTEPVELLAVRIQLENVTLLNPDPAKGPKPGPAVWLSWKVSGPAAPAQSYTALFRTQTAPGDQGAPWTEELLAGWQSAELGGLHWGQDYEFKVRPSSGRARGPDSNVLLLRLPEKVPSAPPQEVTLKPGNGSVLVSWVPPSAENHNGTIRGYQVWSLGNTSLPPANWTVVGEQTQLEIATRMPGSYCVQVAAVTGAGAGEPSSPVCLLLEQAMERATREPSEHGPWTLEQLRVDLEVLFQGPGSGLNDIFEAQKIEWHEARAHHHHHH

T3: human (hu) Robo 4 extracellular domain (ECD)-precision site (PreS)-Avi-tag (Avi)-6x histidine (His) (human)
T3 construct: it holds the ECD with PreScission site, Avi-tag and His-tag; also called recombinant human Robo 4; human Robo 4
T3 chain: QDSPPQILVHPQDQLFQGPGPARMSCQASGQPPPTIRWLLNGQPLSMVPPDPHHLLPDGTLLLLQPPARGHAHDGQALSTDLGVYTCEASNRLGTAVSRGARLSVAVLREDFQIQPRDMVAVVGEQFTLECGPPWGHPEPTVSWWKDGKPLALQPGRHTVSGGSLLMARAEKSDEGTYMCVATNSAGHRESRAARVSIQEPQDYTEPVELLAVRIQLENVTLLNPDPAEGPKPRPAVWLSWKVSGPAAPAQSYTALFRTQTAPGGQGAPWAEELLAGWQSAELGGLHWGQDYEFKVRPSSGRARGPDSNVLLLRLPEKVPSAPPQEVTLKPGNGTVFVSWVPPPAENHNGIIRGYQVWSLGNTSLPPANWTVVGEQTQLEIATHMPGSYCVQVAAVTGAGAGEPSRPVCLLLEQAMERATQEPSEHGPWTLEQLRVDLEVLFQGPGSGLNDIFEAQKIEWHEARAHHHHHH

B1: 01E06 anti-Robo 4 IgG (antibody, V domains shown)
VH: EVQLVESGGGLSQPGNSLKLSCEASGFTFRNYDMSWVRQAPGKGLEWVAYISSGGGPIYYVDAVKGRFTISRDNAKNLLFLQMNNLRSEDTAVYYCARDLADIGVFDYWGQGTMVTVSS
VL: DFKMTQSPDILSPSLGESVTITCQSSQNIYSNLAWYQQKPGEHPKLLIYTASILADGIPSRFTGSGSGTQFSLKISSLQPDDVANYYCQQYVYYRTFGPGTKLEIK
notes: also called 01E06 IgG
B2: 01F05 anti-Robo 4 IgG (antibody, V domains shown)
VH: QVQLKQSGAELVKPGASVKISCKTSVYTFTYGYMHWVEQKPGQGLEWIGRIDPDSGNSMYNQKFQGRATLTRDKSSSTVYMELRSLTSEDSAVYYCARSMRYSGYRDYALDLWGQGTQVTVSS
VL: QLVLTQSPSASASLGASVKLTCTLSSQHSSYGITWLQQHPDKAPKYVMYLKSDGSHTKGADIPDRFSGSSSGVHRYLSISNVQPEDEAIYFCVTYDSTHVFGSGTQLTVLG
notes: also called 01F05 IgG
B3: 01F09 anti-Robo 4 IgG (antibody, V domains shown)
VH: QIQLQESGPGLVKPSQSLSLTCSVTGYSISSGSLWTWIRQFPGNNLEWMGYISYAGGIDYNPSLTSRISITRDTSRNQFFLQLESVTTQDTATYYCATPGGYPFHFDYWGQGTMVTVSS
VL: QPVLTQSPSASASLGASVKLTCTLNSQFSTYNIGWYQQHRDKPPKYVMFVKGDGGHSKADGIPDRFSGSSSGADRYLTISNIQAEDEAIYFCGADYNNAGQYGCVFGSGTHFTVLG
notes: also called 01F09 IgG
B4: 7G2 anti-Robo 4 IgG (antibody, V domains shown)
VH: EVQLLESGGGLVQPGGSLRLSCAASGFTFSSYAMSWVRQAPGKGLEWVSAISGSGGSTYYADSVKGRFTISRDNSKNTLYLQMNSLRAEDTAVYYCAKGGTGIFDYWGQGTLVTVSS
VL: EIVLTQSPGTLSLSPGERATLSCRASQSVSSSYLAWYQQKPGQAPRLLIYGASSRATGIPDRFSGSGSGTDFTLTISRLEPEDFAVYYCQQGQLPPRTFGQGTKVEIK
notes: also called 7G2 IgG

This is an account of results in patent publication US20180282410A1 (Hoffmann-La Roche, published 2018).

One test concerns the target T1, murine (mu) Robo 4 ECD-PreS-Avi-His. In words: SPR Biacore T100, biotinylated antigen on streptavidin chip, IgG as analyte (avidity). As to the method:
(§1) All surface plasmon resonance (SPR) experiments are performed on a Biacore T100 at 25° C. with HBS-EP as running buffer (0.01 M HEPES pH 7.4, 0.15 M NaCl, 3 mM EDTA, 0.005% Surfactant P20 (Biacore)).
(§2) Determination of avidity was done by direct immobilization of biotinylated recombinant human, murine and cynomolgus Robo 4 on a Streptavidin sensor chip. Immobilization level ranged from 300 to 1000 RU. Anti-Robo 4 antibodies were passed through the flow cells for 220 s at 30 μl/min in a concentration range from 0.78-50 nM. Dissociation was monitored for 220 s. For the blank and the 25 nM injection dissociation was monitored for 600 s.
(§3) Kinetic constants were derived using the Biacore T100 Evaluation Software (vAA, Biacore), to fit rate equations for 1:1 Langmuir binding by numerical integration.
For B1, the Kd was 1.07 nM, the off-rate constant (koff) came out at 0.000805 s⁻¹ and the kon stood at 750000 M⁻¹ s⁻¹.

The molecule B2 showed a Kd of 0.19 nM, a dissociation rate constant (koff) of 7.32e-05 s⁻¹ and a kon of 373000 M⁻¹ s⁻¹.

Molecule B3 gave a Kd of 1.09 nM, a dissociation rate constant (koff) of 0.00115 s⁻¹ and an on-rate constant (kon) of 1.05e+06 M⁻¹ s⁻¹.

The target in a further test is T2, recombinant cynomolgus Robo 4 ECD fused …. The test is described as above. How it is done:
as §1, §2, §3
As to B4, the Kd amounted to 0.94 nM, the koff was 0.000291 s⁻¹ and the kon came out at 310000 M⁻¹ s⁻¹.

For the molecule B1, the Kd worked out at 0.0001 nM and the kon came out at 1.13e+06 M⁻¹ s⁻¹.

Turning to B2, the Kd stood at 0.58 nM, the off-rate constant (koff) was 0.000475 s⁻¹ and the on-rate constant (kon) was 822000 M⁻¹ s⁻¹.

In the case of B3, the Kd was 0.37 nM, the koff is 0.000817 s⁻¹ and the kon came out at 2.22e+06 M⁻¹ s⁻¹.

The next test concerns the target T3, human (hu) Robo 4 extracellular domain …. Described as above. How it is done:
as §1, §2, §3
On to B4, for which the Kd was found to be 0.421 nM, the koff stood at 0.000152 s⁻¹ and the on-rate constant (kon) was 361000 M⁻¹ s⁻¹.

In the case of B1, the Kd worked out at 0.0007 nM, the dissociation rate constant (koff) was about 1.25e-06 s⁻¹ and the kon came to 1.76e+06 M⁻¹ s⁻¹.

Turning to B2, the Kd is 0.093 nM, the koff turned out to be 6.13e-05 s⁻¹ and the kon was 657000 M⁻¹ s⁻¹.

The molecule B3 showed a Kd of 0.018 nM, a koff of 3.78e-05 s⁻¹ and an on-rate (kon) of 2.1e+06 M⁻¹ s⁻¹.

As a reminder, the koff is the first-order rate constant of dissociation. What is called kon is the second-order rate constant of association.
